The source of these data is article PMC11103505 (2024).

Substitutions are numbered along the chain they refer to.

Holding throughout (experiment): SPR
The target in test [1] is recombinant human AXL protein (human, UniProt P30530 26-451).
Target sequence in this assay (P30530 26-451): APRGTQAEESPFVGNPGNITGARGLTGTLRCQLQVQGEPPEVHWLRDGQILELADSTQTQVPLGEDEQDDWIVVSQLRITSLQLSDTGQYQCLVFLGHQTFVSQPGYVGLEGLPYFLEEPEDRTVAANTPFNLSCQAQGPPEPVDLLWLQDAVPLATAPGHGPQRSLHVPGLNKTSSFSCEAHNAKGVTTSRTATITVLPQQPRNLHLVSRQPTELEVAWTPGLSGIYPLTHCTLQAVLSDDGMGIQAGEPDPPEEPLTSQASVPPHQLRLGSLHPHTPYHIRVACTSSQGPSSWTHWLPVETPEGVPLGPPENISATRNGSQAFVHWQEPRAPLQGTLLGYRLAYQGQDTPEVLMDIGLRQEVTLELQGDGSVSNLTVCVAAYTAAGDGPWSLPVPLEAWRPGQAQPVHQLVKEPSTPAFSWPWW
Test [2] deals with T1, recombinant mouse AXL protein (mouse, UniProt Q00993 19-445).
T1 chain: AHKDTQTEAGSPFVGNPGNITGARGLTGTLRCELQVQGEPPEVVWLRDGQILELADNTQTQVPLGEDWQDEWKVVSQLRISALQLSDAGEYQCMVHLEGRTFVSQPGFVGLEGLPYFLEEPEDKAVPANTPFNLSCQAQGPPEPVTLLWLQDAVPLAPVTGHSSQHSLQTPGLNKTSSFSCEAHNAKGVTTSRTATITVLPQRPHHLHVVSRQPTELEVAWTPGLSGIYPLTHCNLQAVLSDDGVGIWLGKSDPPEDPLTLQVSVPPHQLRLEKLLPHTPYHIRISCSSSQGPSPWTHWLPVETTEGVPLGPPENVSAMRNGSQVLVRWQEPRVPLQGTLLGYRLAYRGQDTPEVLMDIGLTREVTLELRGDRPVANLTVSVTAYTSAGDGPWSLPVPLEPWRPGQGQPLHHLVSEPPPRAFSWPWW

Test [3] concerns the target T2, recombinant mouse AXL protein (mouse, UniProt Q00993 19-445).
T2 chain: T1 chain

The target in test [4] is recombinant human AXL protein (human, UniProt P30530 26-451). The source holds these as a separate data set.
Target sequence in this assay (P30530 26-451): as the sequence (P30530 26-451) above

B1: anti-AXL single domain antibody sdAb19 (VHH)
VHH: QVQLQESGGGMVQPGGSLRLSCAASGFTFTSYDMTWLRQTPGKGPEWVSTISTGGLRTYYGNSVKGRFIISRDNTKNTLYLQMNSLKPEDTALYYCARGPFTVADPRRGQGTQVTVSS
The term Kd denotes the concentration at which binding is half-saturated. As for B1, the Kd turned out to be 24 nM in test [1] and 11.8 nM in test [2].

B2: anti-AXL single domain antibody sdAb20 (VHH)
VHH: B1 VHH with M11L, Q13R
As to B2, the Kd was 5.2 nM in test [3] and 22 nM in test [4].

B3: anti-AXL single domain antibody sdAb25 (VHH)
VHH: QVQLQESGGGLVQPGGSLRLSCVASGSIFSIYAMGWYRQAPGKQRELVAGISSGGSTNYADSVKGRFTISRDNAKNTVYLQMNSLKPEDTAVYYCNYDLVEAVTGEYDYWGQGTQVTVSS
With B3, the figures for the Kd in test [1] and in test [2] were 9.1 nM and 439 nM, respectively.

B4: anti-AXL single domain antibody sdAb4 (VHH)
VHH: B3 VHH with E101K
Regarding B4, the Kd in test [1] stood at 10.8 nM; in test [2], 541 nM.

B5: anti-AXL single domain antibody sdAb12 (VHH)
VHH: B3 VHH with Q13K
Consider B5, for which the Kd in test [1] was 7.7 nM; in test [2], 354 nM.
